In article PMC7040854:

Assays:
[1] = target: FGFR2K^R678E (human); assay: NMR CPMG relaxation dispersion
[2] = target: FGFR2K^R678G (human); assay: NMR CPMG relaxation dispersion

Substance | Kd [1] | Kd [2]
FGFR2K^R678E (domain or fragment) | 8 mM | –
FGFR2K^R678G (domain or fragment) | – | 55 mM
